According to patent US20230331848A1 (BIOSION, published 2023):

Legend:
[1] = target: T1, in house made human PD-1-Fc protein (human, biotin-labeled (sites not given)); assay: competitive ELISA: antibody pre-mixed with biotin-labeled human PD-1-Fc, added to coated human PD-L1-Fc (blocked ligand); unit from the axis 'Con of mAb, nM.'
T1 construct: also called biotin-labeled human PD-1-Fc
Procedure: The activities of the anti-PD1 antibodies of the disclosure to block PD-L1-PD1 binding were measured in a competitive ELISA.
(§1) Briefly, 100 μl human PD-L1-Fc protein (prepared in-house with SEQ ID NO: 28) at 2 μg/mL in carbonate/bicarbonate buffer (pH 9.6) was coated on 96-well micro plates overnight at 4° C., Plates were washed with wash buffer (PBS+0.05% w/v Tween-20, PBST), and blocked with 5% w/v non-fatty milk in PBST for 2 hours at 37° C. […] After incubation at 37° C. for 40 minutes, plates were washed using wash buffer. […] Plates were washed again using wash buffer. Finally, TMB was added and the reaction was stopped using 1M H₂SO₄. The absorbance was read on a microplate reader using dual wavelength mode with 450 nm for TMB and 630 nm as the reference wavelength, then the OD (450-630) values were plotted against antibody concentrations. Data was analyzed using Graphpad Prism software and IC₅₀ values were reported.

[2] = target: T2, cynomolgus PD-1-his protein (Cat#:PD1-05223, Acro biosystems Inc.) (cynomolgus, UniProt B0LAJ3 25-170); assay: indirect ELISA on coated cynomolgus PD-1-his
T2 construct: Bought protein used in Biacore and indirect ELISA; also called monkey PD-1; Cyno PD-1

[3] = target: T1, in house made human PD-1-Fc protein; assay: competitive ELISA: biotin human PD-1-Fc + antibody on coated human PD-L1-Fc (competitor)
Procedure: as §1

[4] = target: T3, human PD-1-his protein prepared in-house (human, UniProt Q15116 25-167, biotin-labeled (sites not given)); assay: capture ELISA, antibody captured, biotin human PD-1-his detected
T3 construct: also called biotin labeled human PD-1-his
Procedure: Briefly, 96-well micro plates were coated with 100 μl 2 μg/ml AffiniPure Goat Anti-Mouse IgG F(ab′)₂ fragment specific (Cat#:115-005-072, Jackson lmmunoResearch) or Goat-anti-human IgG (Cat#:109-005-097, Jackson ImmunoResearch, for the positive control and negative control) in PBS overnight at 4° C. Plates were washed once with wash buffer (PBST, PBS+0.05% Tween-20) and then blocked with 200 μl/well blocking buffer (5% w/v non-fatty milk in PBST) for 2 hours at 37° C. […] After a final wash, plates were incubated with 100 μl/well TMB (Cat#:TMB-S-002, Innoreagents) at room temperature.
For the capture ELISA, 96-well plates were coated with 100 μl 2 μg/ml AffiniPure Goat Anti-Human IgG, Fcγ fragment specific (Cat#:109-005-098, Jackson Immunoresearch) instead of AffiniPure goat-anti-mouse IgG F(ab′)₂ fragment specific.

[5] = target: T4, human PD-1 expressed on GS-J2/PD-1 cells (Genscript) (human, UniProt Q15116 25-288); assay: cell-based or functional assay
[6] = target: T3, human PD-1-his protein prepared in-house; assay: competitive ELISA: biotin human PD-1-his + antibody on coated Pembrolizumab (competitor)
Procedure: ELISA plates were washed once with wash buffer (PBST, PBS+0.05% Tween-20) and then blocked with 200 μl/well blocking buffer (5% w/v non-fatty milk in PBST) for 2 hours at 37° C. […] After incubation at 37° C. for 40 minutes, plates were washed using wash buffer, added and incubated with 100 μl/well Peroxidase Streptavidin for 40 minutes at 37° C. Plates were washed again using wash buffer. Finally, TMB was added and the reaction was stopped using 1M H₂SO₄. The absorbance was read on a microplate reader using dual wavelength mode with 450 nm for TMB and 630 nm as the reference wavelength, and the OD (450-630) values were plotted against antibody concentrations. Data was analyzed using Graphpad Prism software and IC₅₀ values were reported.

[7] = target: T4, human PD-1 expressed on GS-J2/PD-1 …; assay: flow cytometry on GS-J2/PD-1 cells
Procedure: In specific, the 293F-mouse PD-1 cells and GS-J2/PD-1 cells were respectively harvested from cell culture flasks, washed twice and re-suspended in PBS containing 2% v/v Fetal Bovine Serum (FACS buffer). Then, 2×10⁵ cells per well were incubated in 96 well-plates with 100 μl of the anti-PD1 antibodies or controls at various concentrations for 40 minutes on ice. […] Following an incubation of 40 minutes at 4° C. in dark, cells were washed three times and re-suspended in FACS buffer. Fluorescence was measured using a Becton Dickinson FACS Canto II-HTS equipment and plotted against antibody concentrations. Data was analyzed using GraphPad Prism software and EC₅₀ values were reported.
For the cell-based binding FACS, R-Phycoerythrin AffiniPure Goat Anti-human IgG Fcγ fragment specific (Cat#:109-115-098, Jackson ImmunoResearch) was used for the humanized antibodies, with 1:1000 dilution in FACS buffer, 100 μl/well.

Row | IC50 [1] [nM] | EC50 [2] [nM] | IC50 [3] [nM] | EC50 [4] [nM] | Cell-based functional assay (EC50, nM) [5] [nM] | IC50 [6] [nM] | EC50 [7] [nM] | Binder
1 | 0.434 |  |  |  |  |  |  | mouse anti-PD-1 monoclonal antibody E1G5D1H1 (antibody, V domains shown, Hybridoma-derived mouse mAb; also called EIG5D1H1; E1G5DIH1) VH: EVQLVESGGGLVKPGGSLKLSCAASGFTFSDFYMYWVRQTPEKRLEWVATISNSGTQTYYLDSVKGRFTISRDNAKNNLYLQMSSLKSEDTAMYYCARDYYRYDSWYFDVWGAGTTVTVSS VL: DIVLTQSPASLAVSQGQRATISCRASESVDFYGTSLMQWFQLKPGQPPKLLIYAASNVESGVPARFSGSGSGTNFSLNIHPVEEDDIAMYFCQQSRKVPWTFGGGTNLEIK
2 |  | 0.07 | 0.37 | 0.14 | 6.62 | 0.48 | 0.44 | mouse anti-PD-1 monoclonal antibody E1A9C8A7 (antibody, V domains shown, Hybridoma-derived mouse mAb purified on Protein A; also called Mouse E1A9C8A7) VH: QVQLQQSGAEVVRPGVSVRISCKGSGYTFSDYVMHWMKQSHGESLEWIGVISTYHIPAVYNQKFKGKATMTVDKSSSTVYLELARLTSEDSAIYYCAREVYGDSYYFDVWGAGTTVTVSS VL: DVLMTQIPLSLPVSLGDQVSISCRSSQSIVHSNGNTYLEWYLQKPGQSPKLLIYKVSNRFSGVPDRFSGSGSGTDFTLKISRVEAEDLGVYYCFQGSHVPYTFGGGTKLEIK
